Assay in all cases: Ni-NTA pull-down of fluorescent DNA with competition, filter plate
The target of data set [1] is IF2D1-Oct4-R9 (human, UniProt Q01860 1-360).
Data set [2] concerns the target IF2D1-Klf4-R9 (human, UniProt O43474 1-513).
Data set [3] has as its target IF2D1-Sox2-R9 (human, UniProt P48431 1-317).

Sequence of IF2D1-Sox2-R9 (P48431 whole entry): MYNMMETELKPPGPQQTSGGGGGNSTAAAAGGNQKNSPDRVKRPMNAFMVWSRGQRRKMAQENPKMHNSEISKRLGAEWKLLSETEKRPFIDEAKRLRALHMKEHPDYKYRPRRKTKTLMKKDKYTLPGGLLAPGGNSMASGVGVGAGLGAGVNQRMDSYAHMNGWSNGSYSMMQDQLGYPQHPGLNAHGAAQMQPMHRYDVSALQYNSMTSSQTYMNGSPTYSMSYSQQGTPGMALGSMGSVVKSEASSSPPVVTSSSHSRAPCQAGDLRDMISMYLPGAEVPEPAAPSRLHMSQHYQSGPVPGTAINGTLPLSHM
Sequence of IF2D1-Oct4-R9 (Q01860 whole entry): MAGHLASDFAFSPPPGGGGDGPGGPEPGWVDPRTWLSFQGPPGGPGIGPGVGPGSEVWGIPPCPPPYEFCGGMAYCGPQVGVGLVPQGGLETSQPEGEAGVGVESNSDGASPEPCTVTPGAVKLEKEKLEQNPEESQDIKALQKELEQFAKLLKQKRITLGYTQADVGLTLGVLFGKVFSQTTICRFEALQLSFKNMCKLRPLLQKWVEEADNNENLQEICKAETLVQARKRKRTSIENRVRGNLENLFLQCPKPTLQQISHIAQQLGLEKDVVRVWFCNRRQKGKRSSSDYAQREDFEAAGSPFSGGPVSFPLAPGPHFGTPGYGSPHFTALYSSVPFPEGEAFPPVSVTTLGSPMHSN
Sequence of IF2D1-Klf4-R9 (O43474 whole entry): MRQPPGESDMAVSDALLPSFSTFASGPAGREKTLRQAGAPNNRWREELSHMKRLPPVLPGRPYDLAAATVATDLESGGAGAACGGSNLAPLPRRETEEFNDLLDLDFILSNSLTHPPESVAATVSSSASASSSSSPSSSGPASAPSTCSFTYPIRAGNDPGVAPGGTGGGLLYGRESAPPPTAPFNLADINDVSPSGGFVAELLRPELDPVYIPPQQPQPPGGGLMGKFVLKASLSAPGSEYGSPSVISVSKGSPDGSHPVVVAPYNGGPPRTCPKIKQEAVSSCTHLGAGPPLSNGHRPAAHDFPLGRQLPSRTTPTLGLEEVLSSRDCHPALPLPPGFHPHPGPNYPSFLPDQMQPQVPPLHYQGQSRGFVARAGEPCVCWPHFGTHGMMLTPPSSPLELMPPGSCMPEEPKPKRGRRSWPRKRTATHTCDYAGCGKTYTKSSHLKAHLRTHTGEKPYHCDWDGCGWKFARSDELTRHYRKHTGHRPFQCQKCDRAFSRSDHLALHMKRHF

B1: Oct4 cognate probe (dsDNA)
DNA 1: CAGAGAGATGCATGTGAGATGCATGTGAGATGCATCG
DNA 2: CGATGCATCTCACATGCATCTCACATGCATCTCTCTG
For B1, in data set [1], the binding result is on record as “binds”.

B2: Klf4 cognate probe (dsDNA)
DNA 1: CAGAGAACCCCACCCATAAACCCCACCCATAAACCCCACCCCG
DNA 2: CGGGGTGGGGTTTATGGGTGGGGTTTATGGGTGGGGTTCTCTG
For B2, in data set [2], the binding result is “binds”.

B3: Sox2 cognate probe (dsDNA)
DNA 1: CAGAGGACAAAGGTGGACAAAGGTGGACAAAGCG
DNA 2: CGCTTTGTCCACCTTTGTCCACCTTTGTCCTCTG
For B3, the binding result in data set [3] is on record as “binds”.
